Laboratory results taken from patent US20050196380A1, “Method for delivering therapeutic proteins to the intradermal compartment” (priority 2004, published 2005).

How the values were obtained:
[1] = Bolus ID vs SC insulin in diabetic Yucatan Mini swine, serum insulin levels; type: in vivo; details: for PK profiles for regular and fast-acting insulin by the ID route / uptake by ID route compared with Lispro given by the traditional SC route: SS3_34
Method: Lilly Lispro is regarded as fast acting insulin, and has a slightly altered protein structure relative to native human insulin. Hoechst regular insulin, maintains the native human insulin protein structure that is chemically similar, but has slower uptake than Lispro when administered by the traditional SC route. Both insulin types were administered in bolus via the ID route to determine if any differences in uptake would be discernable by this route. 5 U of either insulin type were administered to the ID space using dermal access microdevice design SS3—34.
Thus, 5 U of Lilly Lispro fast-acting insulin was administered using dermal access design SS3—34. Additional microdevices of the same needle array configuration were fabricated whereby exposed needle lengths of the microdevice array, were lengthened to include arrays with needles lengths of 2 and 3 mm. The average total dermal thickness in Yucatan Mini swine ranges from 1.5-2.5 mm. Therefore insulin deposition is expected to be into the dermis, approximately at the dermal/SC interface, and below the dermis and within the SC for 1 mm, 2 mm, and 3 mm length needles respectively. Bolus insulin administration was as described in Example 6.2.
Bolus delivery of Lantus long-acting insulin was delivered via the ID route. Lantus is an insulin solution that forms microprecipitates at the administration site upon injection. […] Lantus insulin (10 U dose, 100 μL) was administered to diabetic Yucatan Mini pigs using the dermal access design SS3—34 and by the standard SC method as previously described. […] More importantly this supports the fact that the biological clearance mechanism in the body is not appreciably changed by the administration route, nor is the way in which that the drug substance is utilized. This is extremely important for drugs compounds that have a long circulating half-life (examples would be large soluble receptor compounds or other antibodies for cancer treatment, or chemically modified species such as PEGylated drugs).

blood glucose [2] = assay: Bolus ID vs SC insulin in diabetic Yucatan Mini swine, blood glucose; details: bolus 10 U, 100 μL
Method: Bolus delivery of Lilly Lispro fast acting insulin was performed using ID and SC bolus administration. The ID injection microdevice was dermal access array design SS3—34.10 international insulin units (U) corresponding to 100 μL volume respectively, were administered to diabetic Yucatan Minis swine. Test animals had been previously been rendered diabetic by chemical ablation of pancreatic islet cells, and were no longer able to secrete insulin. Test animals received their insulin injection either via the microneedle array or via a standard 30 G×½ in. needle inserted laterally into the SC tissue space. Circulating serum insulin levels were detected using a commercial chemiluminescent assay kit (Immulite, Los Angeles, Calif.) and blood glucose values were determined using blood glucose strips. ID injections were accomplished via hand pressure using an analytical microsyringe and were administered over approximately 60 sec.

[3] = Slow-infusion ID vs SC insulin delivery in swine, serum insulin pharmacokinetics; type: in vivo
Method: Pharmacokinetic parameters of the delivered substances in accordance with the methods of the invention may be determined using methods known to one skilled in the art. An exemplary pharmacokinetic analysis of infusion data of a substance, e.g., insulin, delivered in accordance with the methods of the invention is carried out as follows. Stepwise nonlinear least-squares regression is used to analyze the insulin concentration-time data from each individual animal. Initially, an empirical biexponential equation is fit to the insulin concentration-time data for the negative control condition. This analysis assumes first-order release of residual insulin, and recovers parameters for the first-order rate constant for release, the residual insulin concentration at the release site, a lag time for release, and a first-order rate constant for elimination of insulin from the systemic circulation. The parameters recovered in this phase of the analysis are of no intrinsic importance, but merely account for the fraction of circulating insulin derived from endogenous sources.
The second step of the analysis involves fitting an explicit compartmental model to the insulin concentration-time data during and after subcutaneous or intradermal infusion. The scheme upon which the mathematical model is based is shown in the upper part of FIG. 1. Infusion of insulin proceeds from t=−0 to t=240-min; after a lag-time (tlag,2) absorption from the infusion site is mediated by a first-order process governed by the absorption rate constant ka. Insulin absorbes into the systemic circulation, distributes into an apparent volume V contaminated by an unknown fractional bioavailability F, and is eliminated according to a first-order rate constant K. The fitting routine recovered estimates of tlag,2, ka, V/F, and K; parameters associated with the disposition of endogenous insulin (CR, tlag,1, kR), which are recovered in the first step of the analysis, are treated as constants. Parameter estimates are reported as mean±SD. The significance of differences in specific parameters between the two different modes of insulin administration (subcutaneous versus intradermal infusion) are assessed with the paired Student's t-test.

blood glucose [4] = assay: Slow-infusion ID insulin delivery in swine, blood glucose response; details: ID infusion 2 U/hr, relative to negative controls and SC infusion
Source text: The distal end of the microneedle was placed into the plastic catheter and cemented in place with epoxy resin to form a depth-limiting hub. The needle outlet was positioned approximately 1 mm beyond the epoxy hub, thus limiting penetration of the needle outlet into the skin to approximately 1 mm, which corresponds to the depth of the intradermal space in swine. The catheter was attached to a MiniMed 507 insulin pump for control of fluid delivery. The distal end of the microneedle was placed into the plastic catheter and cemented in place with epoxy resin to form a death-limiting hub. The needle outlet was positioned approximately 1 mm beyond the epoxy hub, thus limiting penetration of the needle outlet into the skin to approximately 1 mm, which corresponds to the depth of the intradermal space in swine. […] The catheter was connected to an-external insulin infusion pump (MiniMed 507) via the integral Luer connection at the catheter outlet. The pump was filled with Humalog™ (Lispro) insulin (Eli Lilly, Indianapolis, Ind.) and the catheter and microneedle were primed with insulin according to the manufacturer's instructions. […] Blood samples were periodically withdrawn and analyzed for serum insulin concentration and blood glucose values.

[5] = ID vs SC infusion of PTH, weight normalized PTH plasma levels; type: in vivo
Method: An ID administration experiment was conducted using a peptide drug entity: human parathyroid hormone 1-34 (PTH). […] Control SC infusion was through a standard 31-gauge needle inserted into the SC space lateral to the skin using a “pinch-up” technique. ID infusion was through dermal access microdevice design SSB1—30 (a stainless steel 30-gauge needle bent at the tip at a 90° angle such that the available length for skin penetration was 1-2 mm). The needle outlet (the tip of the needle) was at a depth of 1.7-2.0 mm in the skin when the needle was inserted. A 0.64 mg/mL PTH solution was infused at a rate of 75 μL/hr. Flow rate was controlled via a Harvard syringe pump.

[6] = Bolus ID delivery of GCSF to Yucatan minipigs, plasma GCSF by ELISA; type: in vivo; details: bolus ID relative to SC
Method: (§1) Bolus ID delivery of human granulocyte colony stimulating factor (GCSF) (Neupogen) was administered via dermal access microdevice designs SS3—34B (array) or SS1—34 (single needle) to Yucatan minipigs. Delivery rate was controlled via a Harvard syringe pump and was administered over a 1-2.5 min period. […] Administration via IV and SC delivery was performed as controls.

[7] = system: white blood cell (WBC) counts; assay: White blood cell expansion after GCSF administration; type: in vivo, Yucatan minipigs; details: ID, SC and IV delivery vs negative control
Method: as §1

[8] = bolus 10 U, 100 μL, SS3_34 array vs SC needle
[9] = 4 hour infusion, 0.64 mg/mL at 75 μL/hr

Molecule: Hoechst regular insulin: regular insulin that maintains the native human insulin protein structure
- PK profiles for regular and fast-acting insulin by the ID route ([1]; bolus 5 U): essentially identical
- uptake by ID route compared with Lispro given by the traditional SC route ([1]; bolus 5 U): faster uptake

Molecule: Lantus
- "burst" immediately after the ID insulin delivery, relative to SC ([1]; bolus 10 U dose, 100 μL): slightly higher

Molecule: Lispro
- decrease in blood glucose (BG), ID vs SC (blood glucose [2]): faster and greater changes in BG
- lag time prior to absorption (tlag) ([3]; ID infusion, 2 U/hr for 4 hr): 0.88 min
- rate of uptake from the administration site, ka ([3]; ID infusion, 2 U/hr for 4 hr): 0.0666 min⁻¹
- bioavailability, ID relative to SC administration ([3]; ID relative to SC infusion): approximately 1.3 fold
- increase of rate of uptake from the administration site, ID vs SC ([3]; ID relative to SC infusion): approximately 3 fold
- lag time prior to absorption (tlag) ([3]; SC infusion): 13.6 min
- rate of uptake from the administration site, ka ([3]; SC infusion): 0.0225 min⁻¹
- PK profiles for regular and fast-acting insulin by the ID route ([1]; bolus 5 U): essentially identical
- uptake by ID route compared with Lispro given by the traditional SC route ([1]; bolus 5 U): faster uptake
- PK profile as microneedle length is increased ([1]; bolus 5 U, needle lengths 1, 2 and 3 mm): more closely resemble SC administration
- maximum concentration obtained (Cmax), ID vs SC [1, 8]: higher
- time to maximum concentration (Tmax), ID vs SC [1, 8]: shorter
- blood glucose drop (blood glucose [4]): improved relative to conventional SC infusion

Molecule: PTH: peptide drug entity: human parathyroid hormone 1-34
- plasma level following termination of infusion, ID ([5]; 2 hour clearance after 4 hour infusion): rapid decrease
- area under the curve (AUC) of weight normalized plasma level, ID vs SC [5, 9]: larger area under the curve
- peak values at earlier sampling timepoints (15 and 30 min), ID vs SC [5, 9]: higher peak values

B1: GCSF: human granulocyte colony stimulating factor (GCSF) (Neupogen) (protein, chains of the INN, looked up)
chain: MTPLGPASSLPQSFLLKCLEQVRKIQGDGAALQEKLCATYKLCHPEELVLLGHSLGIPWAPLSSCPSQALQLAGCLSQLHSGLFLYQGLLQALEGISPELGPTLDTLQLDVADFATTIWQQMEELGMAPALQPTQGAMPAFASAFQRRAGGVLVASHLQSFLEVSYRVLRHLAQP
- bioavailability increase (AUC), ID vs SC [6]: approximately 2 fold
- white blood cell expansion (PD outcome) [7]: approximately equal PD outcomes
